For test [1], the target named is VLA4 receptor (human) (UniProt P13612).
Test [2] deals with VLA4 receptor (human, UniProt P13612). Put plainly: cell-based or functional assay.
Test [3] has as its target VLA5 receptor (human, UniProt P08648). Put plainly: cell-based or functional assay.
Test [4] addresses VLA3 receptor (human, UniProt P26006). The test can be described thus: cell-based or functional assay.

Turning to “amphotropic MLV envelope (isolate 4070a) (plasmid pHIT456)”, in test [1], the viral titer of pHIT456 (amphotropic) virus on U937 cells in the presence of anti-VLA4 antibody came out at 40000 viral titer.

B1: hybrid ecotropic MLV envelope with the VCAM-1 sequence at site II (plasmid pHIT510) (other)
chain: ASPGSSPHQVYNITWEVTNGDRETVWATSGNHPLWTWWPDLTPDLCMLAHHGPSYWGLEYQSPFSSPPGPPCCSGGSSPGCSRDCEEPLTSLTPRCNTAWNRLKLDQTTHKSNEGFYVCTIDSPLNCGGPDSFYCAYWGCETTGRAYWKPSSSWDFITVNNNLTSDQAVQVCKDNKWCNPLVIRFTDAGRRVTSWTTGHYWGLRLYVSGQDPGLTFGIRLRYQNLGPRVPIGPNPVLADQQPLSKPKPVKSPSVTKPPSGTPLSPTQLPPAGTENRLLNLVDGAYQALNLTSPDKTQECWLCLVAGPPYYEGVAVLGTYSNHTSAPANCSVASQHKLTLSEVTGQGLCIGAVPKTHQALCNTTQTSSRGSYYLVAPTGTMWACSTGLTPCISTTILNLTTDYCVLVELWPRVTYHSPSYVYGLFERSNRHKREPVSLTLALLLGGLTMGGIAAGIGTGTTALMATQQFQQLQAAVQDDLREVEKSISNLEKSLTSLSEVVLQNRRGLDLLFLKEGGLCAALKEECCFYADHTGLVRDSMAKLRERLNQRQKLFESTQGWFEGLFNRSPWFTTLISTIMGPLIVLLMILLFGPCILNRLVQFVKDRISVVQALVLTQQYHQLKPIEYEP
As for B1, the “viral titer on U937 cells (lacZ delivery, X-gal staining)” value in test [2] worked out at 150 viral titer.

B2: hybrid ecotropic MLV envelope with FLA16 at site II (plasmid pHIT508) (other)
chain: ASPGSSPHQVYNITWEVTNGDRETVWATSGNHPLWTWWPDLTPDLCMLAHHGPSYWGLEYQSPFSSPPGPPCCSGGSSPGCSRDCEEPLTSLTPRCNTAWNRLKLDQTTHKSNEGFYVCQGATFALRGDNPQGCGGPDSFYCAYWGCETTGRAYWKPSSSWDFITVNNNLTSDQAVQVCKDNKWCNPLVIRFTDAGRRVTSWTTGHYWGLRLYVSGQDPGLTFGIRLRYQNLGPRVPIGPNPVLADQQPLSKPKPVKSPSVTKPPSGTPLSPTQLPPAGTENRLLNLVDGAYQALNLTSPDKTQECWLCLVAGPPYYEGVAVLGTYSNHTSAPANCSVASQHKLTLSEVTGQGLCIGAVPKTHQALCNTTQTSSRGSYYLVAPTGTMWACSTGLTPCISTTILNLTTDYCVLVELWPRVTYHSPSYVYGLFERSNRHKREPVSLTLALLLGGLTMGGIAAGIGTGTTALMATQQFQQLQAAVQDDLREVEKSISNLEKSLTSLSEVVLQNRRGLDLLFLKEGGLCAALKEECCFYADHTGLVRDSMAKLRERLNQRQKLFESTQGWFEGLFNRSPWFTTLISTIMGPLIVLLMILLFGPCILNRLVQFVKDRISVVQALVLTQQYHQLKPIEYEP
Consider B2, for which the “viral titer on U937 cells (lacZ delivery, X-gal staining)” value in test [3] and in test [4] was 150 viral titer in each case.
